Experimental data taken from the supplement of paper PMC7877785.
± gives the uncertainty stated by the source.

Assay: self-splicing fitness, log relative to wild type (ln ratio); higher = more splicing; Tetrahymena group I intron in knt gene, E. coli kanamycin selection, DiMSum; sequences stand for … in CUCUCU…GGAGGGAAAAGUUAUCAGGCAUGCACCUGGUAGCUAGUCUUUAAACCAAUAGAUUGCAUCGGUUUAAAAGGCAAGACCGUCAAAUUGCGGGAAAGGGGUCAACAGCCGUUCAGUACCAAGUCUCAGGGGAAACUUUGAGAUGGCCUUGCAAAGGGUAUGGUAAUAAGCUGACGGACAUGGUCCUAACCACGCAGCCAAGUCCUAAGUCAACAGAUCUUCUGUUGAUAUGGAUGCAGUUCACAGACUAAAUGUCGGUCGGGGAAGAUGUAUUCUUCUCAUAAGAUAUAGUCGGACCUCUCCUUAAUGGGAGCUAGCGGAUGAAGUGAUGCAACACUGGAGCCGCUGGGAACUAAUUUGUAUGCGAAAGUAUAUUGAUUAGUUUUGGAGUACUCGUGGUCG
Procedure, shortened: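 Library with all eight P1ex-region intron nucleotides randomised, intron inside the knt kanamycin-resistance gene on pET-22b(+), in E. coli BL21(DE3). Cells grew overnight at 37°C or 30°C on LB agar with or without 25 μg/mL kanamycin (plus 100 μg/mL carbenicillin, 50 μM IPTG, 0.2% rhamnose), in six replicate transformations. Pooled colonies were amplicon-sequenced on Illumina HiSeq 2500. DiMSum fitness is the error-weighted combination of wild-type-normalised replicate fold changes, kanamycin versus none.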

Sequence | self-splicing fitness (ln) (30 °C) | self-splicing fitness (ln) (37 °C)
GAGGAGCAAUAUUACGAGUU | -3.46 ± 0.35 | -2.05 ± 0.21
UCGCAGCAAUAUUACGGCGG | -3.41 ± 0.17 | -2.28 ± 0.21
UUAUAGCAAUAUUACGGACU | -2.04 ± 0.35 | -0.965 ± 0.23
CUCCAGCAAUAUUACGAAGC | -3.5 ± 0.23 | -2.6 ± 0.32
CUGCAGCAAUAUUACGCGUA | -1.22 ± 0.23 | -1.53 ± 0.22
UAUGAGCAAUAUUACGUUUU | -4.02 ± 0.32 | -2.45 ± 0.23
GACCAGCAAUAUUACGAAGG | -3.3 ± 0.13 | -2.19 ± 0.18
UUCUAGCAAUAUUACGUAGA | -3.73 ± 0.29 | -2.19 ± 0.25
UUCAAGCAAUAUUACGCCCU | -1.34 ± 0.14 | -0.18 ± 0.16
UUCAAGCAAUAUUACGUGAC | -4.47 ± 0.39 | -2.69 ± 0.27
UGCAAGCAAUAUUACGUCAG | -1.98 ± 0.088 | -0.64 ± 0.087
CCUUAGCAAUAUUACGGUGC | -3.75 ± 0.19 | -3.01 ± 0.25
AUAGAGCAAUAUUACGAGUG | -3.25 ± 0.21 | -0.0938 ± 0.18
UCAGAGCAAUAUUACGUUUA | -3.02 ± 0.25 | -2.6 ± 0.23
CGCCAGCAAUAUUACGAAAC | -4.57 ± 0.36 | -1.78 ± 0.2
CGGCAGCAAUAUUACGCGCC | -4.3 ± 0.43 | -3.04 ± 0.47
GCGUAGCAAUAUUACGUCAU | -3.22 ± 0.26 | -2.25 ± 0.3
GACCAGCAAUAUUACGUGUU | -3.73 ± 0.096 | -2.44 ± 0.11
AAUUAGCAAUAUUACGGUUC | -3.38 ± 0.22 | -2.65 ± 0.26
GUAUAGCAAUAUUACGGGGU | -4.08 ± 0.27 | -1.4 ± 0.14
UACAAGCAAUAUUACGAGAG | -3.24 ± 0.17 | -2.65 ± 0.18
CGUUAGCAAUAUUACGUAGC | -3.37 ± 0.22 | -2.68 ± 0.25
ACCAAGCAAUAUUACGUGGG | -3.46 ± 0.13 | -2.4 ± 0.11
CGAGAGCAAUAUUACGAGGU | -3.16 ± 0.21 | -2.02 ± 0.22
CGGAAGCAAUAUUACGUGCU | -3.85 ± 0.24 | -2.32 ± 0.23

Sequence | self-splicing fitness (ln) (30 °C) | self-splicing fitness (ln) (37 °C)
UCCCAGCAAUAUUACGGUAC | -3.29 ± 0.2 | -1.71 ± 0.17
UAGUAGCAAUAUUACGGGGA | -2.44 ± 0.33 | -3.25 ± 0.47
ACAUAGCAAUAUUACGCACC | -1.83 ± 0.18 | 0.273 ± 0.18
AGCAAGCAAUAUUACGGUGC | -1.6 ± 0.11 | -3.4 ± 0.22
CUCCAGCAAUAUUACGUGGA | -3.5 ± 0.18 | -2.7 ± 0.16
GGAAAGCAAUAUUACGACUC | 0.0221 ± 0.11 | -0.214 ± 0.19
UAUCAGCAAUAUUACGACAA | -0.495 ± 0.086 | 0.237 ± 0.097
UGCUAGCAAUAUUACGUACA | 0.0476 ± 0.1 | 0.533 ± 0.17
GAUGAGCAAUAUUACGAGUA | -3.4 ± 0.43 | -1.92 ± 0.2
ACAAAGCAAUAUUACGCCCC | -0.67 ± 0.27 | -0.241 ± 0.26
GAACAGCAAUAUUACGUCAC | -3.44 ± 0.23 | -0.689 ± 0.17
AUUAAGCAAUAUUACGUUUA | -1.61 ± 0.14 | -1.54 ± 0.15
UGCUAGCAAUAUUACGCAAU | -3.02 ± 0.3 | -2.31 ± 0.29
CUACAGCAAUAUUACGGCGA | -2.97 ± 0.39 | -2.91 ± 0.27
UAACAGCAAUAUUACGACGG | -1.27 ± 0.085 | -0.26 ± 0.11
UCUAAGCAAUAUUACGGAAA | -2.93 ± 0.28 | -1.9 ± 0.27
GUGCAGCAAUAUUACGGGGC | -1.75 ± 0.15 | -2.63 ± 0.27
AUAUAGCAAUAUUACGAGUU | -3.19 ± 0.18 | -1.46 ± 0.15
UGCCAGCAAUAUUACGACUG | -2.79 ± 0.12 | -2.14 ± 0.13
GAUUAGCAAUAUUACGGUUC | -3.38 ± 0.18 | -1.96 ± 0.23
GUCCAGCAAUAUUACGUUGU | -0.537 ± 0.051 | 0.244 ± 0.066
GAACAGCAAUAUUACGCCGG | -1.56 ± 0.18 | -0.838 ± 0.24
CGGCAGCAAUAUUACGUAGG | -0.38 ± 0.075 | 0.0683 ± 0.097
AACGAGCAAUAUUACGAGCA | -2.69 ± 0.18 | -1.97 ± 0.22
CUCAAGCAAUAUUACGCCGU | -3.42 ± 0.17 | -1.88 ± 0.15

Sequence | self-splicing fitness (ln) (30 °C) | self-splicing fitness (ln) (37 °C)
GUAGAGCAAUAUUACGCUGG | -1.56 ± 0.17 | -1.53 ± 0.24
AACAAGCAAUAUUACGCGAG | -1.58 ± 0.072 | -0.559 ± 0.067
CACCAGCAAUAUUACGCCGC | -3.35 ± 0.2 | -2.43 ± 0.29
UAGAAGCAAUAUUACGAUUA | -0.441 ± 0.08 | -0.0749 ± 0.093
CCAUAGCAAUAUUACGCCGA | -1.4 ± 0.26 | -1.57 ± 0.42
GUCAAGCAAUAUUACGCCAU | -4.64 ± 0.42 | -3.01 ± 0.18
UGGGAGCAAUAUUACGCUUU | – | -2.01 ± 0.31
ACCCAGCAAUAUUACGACAA | -1.66 ± 0.1 | -1.09 ± 0.1
CACGAGCAAUAUUACGGUAU | -3.04 ± 0.23 | -2.25 ± 0.22
AGCUAGCAAUAUUACGCUGU | -2.86 ± 0.2 | -3.07 ± 0.32
CCACAGCAAUAUUACGUUCC | -4.24 ± 0.24 | -2.84 ± 0.27
AGGCAGCAAUAUUACGCUGU | -3.99 ± 0.16 | -3.28 ± 0.2
AACCAGCAAUAUUACGAAAG | -3.21 ± 0.16 | -1.99 ± 0.19
GCGGAGCAAUAUUACGUCUC | – | -2.54 ± 0.38
GGACAGCAAUAUUACGGCAC | -0.469 ± 0.12 | -0.25 ± 0.15
UACCAGCAAUAUUACGACUU | -0.799 ± 0.046 | -0.301 ± 0.056
GGCUAGCAAUAUUACGUCCG | -2.88 ± 0.3 | -0.381 ± 0.17
GAAGAGCAAUAUUACGGGAG | -3.15 ± 0.19 | -2.19 ± 0.23
CCCUAGCAAUAUUACGUGUA | -3.49 ± 0.25 | -2.94 ± 0.21
CUCUAGCAAUAUUACGGUAG | -4.49 ± 0.33 | -1.79 ± 0.23
UGUCAGCAAUAUUACGUAUU | -1.77 ± 0.071 | -0.932 ± 0.081
UGUCAGCAAUAUUACGACGA | -0.0655 ± 0.12 | -1.08 ± 0.12
AGAUAGCAAUAUUACGGCUC | -1.14 ± 0.32 | -0.656 ± 0.37
ACCUAGCAAUAUUACGAGGA | -2.16 ± 0.12 | -0.9 ± 0.12
UCAAAGCAAUAUUACGGCGA | -0.708 ± 0.074 | -0.462 ± 0.068
